Laboratory results published in article PMC2908537.

Columns and labels:
Test in all cases: SPR; WT or point-mutant CRT immobilised on a biosensor chip at about 500 RU by primary amine coupling, SE 15mer peptides run as analyte; read-out RU, mean ± SEM; 25°C, 10 mM HEPES pH 7.4, 50 mM KCl, 0.5 mM CaCl2, 100 µM ZnCl2, 0.005% surfactant P-20, flow 10 µl/min
[1] = molecular target: CRT E223A mutant, 6xHis-tagged (not stated (rabbit or mouse cDNA cloned)) (UniProt P14211)
[2] = molecular target: CRT Y254A mutant, 6xHis-tagged (not stated (rabbit or mouse cDNA cloned)) (UniProt P14211)
[3] = molecular target: CRT E217A mutant, 6xHis-tagged (not stated (rabbit or mouse cDNA cloned)) (UniProt P14211)
[4] = molecular target: CRT N279A mutant, 6xHis-tagged (not stated (rabbit or mouse cDNA cloned)) (UniProt P14211)
[5] = molecular target: wild-type CRT, 6xHis-tagged, from the pBAD vector (not stated (rabbit or mouse cDNA cloned)) (UniProt P14211)
[6] = molecular target: CRT D220A mutant, 6xHis-tagged (not stated (rabbit or mouse cDNA cloned)) (UniProt P14211)
[7] = molecular target: CRT H224A mutant, 6xHis-tagged (not stated (rabbit or mouse cDNA cloned)) (UniProt P14211)

Row | RU [1] [RU] | RU [2] [RU] | RU [3] [RU] | RU [4] [RU] | RU [5] [RU] | RU [6] [RU] | RU [7] [RU] | Substance
1 | 84.6 | 113 | 106 | 145 | 128 | 120 | 128 | SE-expressing 15mer synthetic peptide 65-79*0404
2 | 56.7 | 66.5 | 50.9 | 106 | 71.2 | 70.1 | 68.2 | SE-expressing 15mer synthetic peptide 65-79*0401
